Measurements: US20250074980A1 (BRIGHAM AND WOMEN S HOSPITAL, published 2025)
Blank lines part the entries; values can stand above or below the binder they belong to.

Legend:
[1] = target: T1, CEACAM3 on transfected HeLa cells (human, UniProt P40198 35-252); assay: flow cytometry, transfected HeLa
T1 construct: whole, on cells; also called HeLa-CEACAM3; HeLa C3
T1 sequence (looked up): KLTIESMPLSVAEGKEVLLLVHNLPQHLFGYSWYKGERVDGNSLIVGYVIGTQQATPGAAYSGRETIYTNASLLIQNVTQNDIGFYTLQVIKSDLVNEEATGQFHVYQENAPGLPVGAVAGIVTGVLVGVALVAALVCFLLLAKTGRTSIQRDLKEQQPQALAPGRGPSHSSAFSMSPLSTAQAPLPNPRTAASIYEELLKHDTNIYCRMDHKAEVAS
Outline: (§1)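 For each HeLa line stably transfected with one CEACAM family member, staining is given as the measure of binding selectivity. Cultures were held at 37° C with 5.0% CO₂ in DMEM plus 10% fetal bovine serum. The test antibody, a fluorochrome-conjugated isotype-specific secondary antibody and DAPI as viability dye were applied, with acquisition on a Cytoflex and analysis in FlowJo.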

[2] = target: T2, CEACAM8 on transfected HeLa cells (human, UniProt P31997 35-320); assay: flow cytometry, transfected HeLa
T2 construct: whole, on cells; also called HeLa-CEACAM8; HeLa C8
T2 sequence (looked up): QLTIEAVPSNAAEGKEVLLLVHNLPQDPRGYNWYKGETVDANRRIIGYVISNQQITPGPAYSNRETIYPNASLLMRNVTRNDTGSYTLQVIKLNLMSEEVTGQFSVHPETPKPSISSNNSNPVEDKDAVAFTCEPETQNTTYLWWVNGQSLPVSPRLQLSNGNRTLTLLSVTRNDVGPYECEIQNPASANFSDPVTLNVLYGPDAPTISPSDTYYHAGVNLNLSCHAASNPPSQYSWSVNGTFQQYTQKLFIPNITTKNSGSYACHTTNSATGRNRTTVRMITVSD
Outline: as §1

His-tagged CEACAM1 [3] = target: T3, His-tagged CEACAM1 (human, UniProt P13688 35-428); assay: SPR multi-cycle, IgG captured
T3 construct: 45 kDa SPR analyte; also called CEACAM1-HIS; CEACAM1 analyte
T3 sequence: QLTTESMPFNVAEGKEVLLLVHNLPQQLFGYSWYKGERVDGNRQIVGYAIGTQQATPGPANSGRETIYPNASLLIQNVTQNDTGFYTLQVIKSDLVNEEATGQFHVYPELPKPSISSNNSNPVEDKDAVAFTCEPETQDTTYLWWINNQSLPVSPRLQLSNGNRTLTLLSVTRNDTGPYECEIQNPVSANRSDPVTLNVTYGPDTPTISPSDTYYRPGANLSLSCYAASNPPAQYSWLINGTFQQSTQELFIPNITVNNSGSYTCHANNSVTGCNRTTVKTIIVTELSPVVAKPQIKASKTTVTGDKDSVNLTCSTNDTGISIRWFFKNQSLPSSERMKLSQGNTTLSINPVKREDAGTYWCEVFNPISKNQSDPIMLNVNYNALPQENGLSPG
Description: As an alternative approach to assess the binding of the 36 antibody combinations and the three control antibodies to CEACAM1, a kinetic analysis was performed on a Biacore T200 (serial no. 1909913) running Biacore T200 Evaluation Software V2.0.1 (Uppsala, Sweden). All experiments were run at 25° C. with HBS-P+ running buffer (pH 7.4) (GE Healthcare, cat. no. BR100671). All kinetic experiments were performed using His-tagged CEACAM1 as the analyte. For all experiments, antibodies were immobilized onto a Series S Protein A sensor chip surface. For kinetic experiments, the amount of immobilized/captured ligand was limited to avoid mass transfer effects at the surface of the chip with the surface ideally having an analyte binding level (Rₘₐₓ) of 50-150 RUs. Using a MW of 45 kDa for the CEACAM1 analyte, 150 kDa for the antibody ligand (estimated value for IgG), 50 RU for Rmax and the stoichiometry (Sm) as 2 due to the ability of each antibody to bind 2 target molecules, a target response level of ˜75 RUs was set for capture of all the sample antibodies.
The signal from the reference channel Fc1 was subtracted from that of Fc2, Fc3 and Fc4 to correct for differences in non-specific binding to a reference surface, a global Rmax parameter was used in the 1-to-1 binding model. The relative Kp compared to […] was calculated by dividing the Kp of the humanized CEACAM antibody variants by that of the chimeric antibody VH0/Vκ0 on the same chip. A summary of the averaged relative Kp obtained for the 12 antibody combinations analyzed using multi cycle kinetics can be found in Table 5.

His-tagged CEACAM1 [4] = target: T3, His-tagged CEACAM1; assay: SPR single-cycle, IgG captured
Outline: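 Biacore T200 single-cycle kinetics at 25° C in HBS-P+ (pH 7.4): antibodies (purified or HEK EBNA supernatant, 1 μg/ml) captured on Protein A to ~75 RU, His-tagged CEACAM1 analyte at 3.125–50 nM (5-point 2-fold) at 50 μl/min without regeneration. Reference channel Fc1 subtracted.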

[5] = target: T4, CEACAM6 on transfected HeLa cells (human, UniProt P40199 35-320); assay: flow cytometry, HeLa-CEACAM6 transfectants, % positive cells
T4 construct: whole, on cells; also called HeLa-CEACAM6; HeLa C6
T4 sequence (looked up): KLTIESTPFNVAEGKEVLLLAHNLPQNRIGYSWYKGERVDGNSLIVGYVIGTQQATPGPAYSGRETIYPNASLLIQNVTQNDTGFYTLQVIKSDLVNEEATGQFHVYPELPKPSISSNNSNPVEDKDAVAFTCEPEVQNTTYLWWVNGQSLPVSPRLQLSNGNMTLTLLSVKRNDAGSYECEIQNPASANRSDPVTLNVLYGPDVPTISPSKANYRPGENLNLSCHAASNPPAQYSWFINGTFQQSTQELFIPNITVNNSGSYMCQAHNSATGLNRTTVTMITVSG
Description: Binding selectivity for CEACAM1 was tested for the 24 humanized antibody variants that bound to CEACAM1 (see Table 3), as well as the chimeric control antibody VH0/Vκ0, by flow cytometry on HeLa cells transfected with CEACAM1, 3, 5, 6 and 8. […] There was no evidence of any staining of the HeLa-CEACAM3 or HeLa-CEACAM8 transfectants. […] Due to its favorable affinity to and selectivity for CEACAM1 as well as its favorable expression level, VH1/Vκ8 was chosen as the framework for affinity maturation.

GST-CEACAM1 = target: T5, GST-CEACAM1 (human, UniProt P13688 35-141, limits assumed); assay: competition ELISA vs parental murine antibody
T5 construct: also called human CEACAM1-GST protein
T5 sequence: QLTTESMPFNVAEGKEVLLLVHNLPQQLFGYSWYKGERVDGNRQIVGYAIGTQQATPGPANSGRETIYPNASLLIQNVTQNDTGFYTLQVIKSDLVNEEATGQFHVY
Description: The binding of the purified antibodies to human CEACAM1 was assessed in a competition ELISA assay. Nunc Immuno MaxiSorp 96 well flat bottom microtitre plates were pre-coated with 1 μg/ml of GST-CEACAM1 in 1×PBS, overnight at 4° C. The following day the plates were blocked for 1 hour at room temperature (“RT”) with 2% BSA/PBS before washing 3× with PBST pH 7.4. A 3-fold dilution series of the chimeric antibody chimeric antibody VH0/Vκ0, an irrelevant IgG4 antibody, and the humanized CEACAM1 antibodies from 100 μg/ml to 0.07 or 0.002 μg/ml were pre-mixed with a constant concentration of parental murine antibody (0.45 μg/ml final concentration), added to the plate and incubated for 1 hour at room temperature. Following 3×PBST washes, the binding of the parental murine CEACAM1 antibody was detected with an anti-mouse-HRP and TMB substrate. The reaction was stopped with 3 M HCl, absorbance read at 450 nm on a Dynex Technologies MRX TC II plate reader and the binding curves plotted. The binding of the humanized CEACAM antibody variants to CEACAM1 was compared to the chimeric antibody (VHO/Vκ0), which was included on each plate.

binding result [1]: no binding
binding result [2]: no binding
Kd (His-tagged CEACAM1 [3]): 152 nM
average relative KD to VH0/Vκ0 (His-tagged CEACAM1 [3]): 2.7
koff (His-tagged CEACAM1 [3]): 0.0458 s⁻¹
kon (His-tagged CEACAM1 [3]): 302000 M⁻¹ s⁻¹
relative KD to VH0/Vκ0 (His-tagged CEACAM1 [3]): 2.7
Kd (His-tagged CEACAM1 [4]): 145 nM
relative KD to VH0/Vκ0 (His-tagged CEACAM1 [4]): 3.5
binding result [5]: no binding
B1: VH2/Vκ12 (antibody, IgG4, V domains shown)
VH: EVQLLESGGGLVQPGGSLRLSCAASGFIFSSHGMSWVRQAPGKGLEWVATISSGGTYTYYPDSVKGRFTISRDNSKNTLYLQMNSLRAEDTAMYYCARHDFDYDAAWFAYWGQGTLVTVSS
VL: EIVLTQSPATLSLSPGERATLSCRANSSVSYMYWYQQKPGQAPRPLIYLTSNRATGIPARFSGSGSGTDYTLTISSLEPEDFATYYCQQWSSNPPTFGQGTKLEIK
notes: IgG4 (S241P), kappa

binding result (GST-CEACAM1): no binding (tested: 100 µg/ml)
B2: VH2/Vκ3 (antibody, IgG4, V domains shown)
VH: EVQLLESGGGLVQPGGSLRLSCAASGFIFSSHGMSWVRQAPGKGLEWVATISSGGTYTYYPDSVKGRFTISRDNSKNTLYLQMNSLRAEDTAMYYCARHDFDYDAAWFAYWGQGTLVTVSS
VL: EIVLTQSPATLSLSPGERATLSCRANSSVSYMAWYQQKPGQAPRPWIYLTSNRATGVPARFSGSGSGTDYTLTISSLEPEDFATYYCQQWSSNPPTFGQGTKLEIK
notes: IgG4 (S241P), kappa

binding result (His-tagged CEACAM1 [4]): no binding (tested: 50 nM)
binding result (GST-CEACAM1): no binding (tested: 100 µg/ml)
B3: VH2/Vκ5 (antibody, IgG4, V domains shown)
VH: EVQLLESGGGLVQPGGSLRLSCAASGFIFSSHGMSWVRQAPGKGLEWVATISSGGTYTYYPDSVKGRFTISRDNSKNTLYLQMNSLRAEDTAMYYCARHDFDYDAAWFAYWGQGTLVTVSS
VL: EIVLTQSPATLSLSPGERATLSCRANSSVSYMAWYQQKPGQAPRLLIYLTSNRATGIPARFSGSGSGTDFTLTISSLEPEDFAVYYCQQWSSNPPTFGQGTKLEIK
notes: IgG4 (S241P), kappa

binding result (His-tagged CEACAM1 [4]): no binding (tested: 50 nM)
binding result (GST-CEACAM1): no binding (tested: 100 µg/ml)
B4: VH4/Vκ3 (antibody, IgG4, V domains shown)
VH: EVQLLESGGGLVQPGGSLRLSCAASGFIFSSHGMSWVRQAPGKGLEWVSTISSGGTYTYYADSVKGRFTISRDNSKNTLYLQMNSLRAEDTAVYYCARHDFDYDAAWFAYWGQGTLVTVSS
VL: EIVLTQSPATLSLSPGERATLSCRANSSVSYMAWYQQKPGQAPRPWIYLTSNRATGVPARFSGSGSGTDYTLTISSLEPEDFATYYCQQWSSNPPTFGQGTKLEIK
notes: IgG4 (S241P), kappa

binding result (His-tagged CEACAM1 [4]): no binding (tested: 50 nM)
binding result (GST-CEACAM1): no binding (tested: 100 µg/ml)
B5: VH3/Vκ5 (antibody, IgG4, V domains shown)
VH: EVQLLESGGGLVQPGGSLRLSCAASGFIFSSHGMSWVRQAPGKGLEWVATISSGGTYTYYADSVKGRFTISRDNSKNTLYLQMNSLRAEDTAMYYCARHDFDYDAAWFAYWGQGTLVTVSS
VL: EIVLTQSPATLSLSPGERATLSCRANSSVSYMAWYQQKPGQAPRLLIYLTSNRATGIPARFSGSGSGTDFTLTISSLEPEDFAVYYCQQWSSNPPTFGQGTKLEIK
notes: IgG4 (S241P), kappa

binding result (His-tagged CEACAM1 [4]): no binding (tested: 50 nM)
binding result (GST-CEACAM1): no binding (tested: 100 µg/ml)
B6: VH4/Vκ5 (antibody, IgG4, V domains shown)
VH: EVQLLESGGGLVQPGGSLRLSCAASGFIFSSHGMSWVRQAPGKGLEWVSTISSGGTYTYYADSVKGRFTISRDNSKNTLYLQMNSLRAEDTAVYYCARHDFDYDAAWFAYWGQGTLVTVSS
VL: EIVLTQSPATLSLSPGERATLSCRANSSVSYMAWYQQKPGQAPRLLIYLTSNRATGIPARFSGSGSGTDFTLTISSLEPEDFAVYYCQQWSSNPPTFGQGTKLEIK
notes: IgG4 (S241P), kappa
